Measurements from the nanobody polyreactivity screen of Harvey et al. (2022).

test: yeast display, Sf9 membrane polyspecificity reagent, FACS + sequencing; frameworks hold sequencing errors
Outline: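 Galactose induction of a Saccharomyces cerevisiae BJ5465 synthetic nanobody display library ran 36–48 hours. The cells were then stained for 1 hour at 4 °C with 10% biotinylated, detergent-solubilized Sf9 membrane reagent, pulled down on streptavidin microbeads and FACS-sorted into low and high (top ~1%) gates on expression and reagent-binding fluorescence. Labels for polyreactivity follow the gate of origin.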

Sequence	polyreactivity (PSR sort gate)
QVQLVESGGGLVQAGGSLRLSCAACGRIFGENAMGWYRQAPGKERELVASISSTDSTYYADSVKGRFTISRDNAKNTVYLQMNSLKPEDTAVYYSAARWISVWSEGAEHDYWGQGTQVTVSS	low polyreactivity
QVQLVESGGGLVHAGGSLRLSCAASGRICGPYVMGWYRQAPGKERELVASITSSGGSPYYADSVKGRFTISRDNAKNTVYLQMNSLKPEDTAVYYWGQGTQVSVSS	low polyreactivity
QVQLVESGRGLVQAGGSLRLSCAASGFIFYSNAMGWYRQAPGKERELVAAISRGGGSTYFADSLKGRFTISRDNAKNTVYLQMNSLKPEDTAVYYCAKRRLSPQDDYWGQGTQVTVSS	high polyreactivity
QVQLVESGGGLVQAGGSLRLSCAPSGRIFAYNTMGGYRQAPGKERELVAVSTSGGSTNYADSVKRRFTISRDNAKNTVYLQMNSLKTEDTAVYYCATLETTGVNYWGQGTQVTVSS	high polyreactivity
QVQLVESGGGLVQAGGSLRLSCAASGRIFVTYAMGWYRQAPGKERELVASISRSGGRTYYADSVKGRFTISRDNAKNTVYLQMNSLKPEDTAVYYCNADQEGYQQYFYLGSPYDYWGQGTQVTVSS	low polyreactivity
QVQLVESAGGLVQAGGSLRLSCAASGRIFWDYAMGWYRQAPGKERELVATITQNDGSTYYADSVKGRFTISRDNAKNTVYLQMNSLKPEDTAVYYCAAYLLGWFTIKYDYGGQGTQVTVSS	low polyreactivity
QVQLVESGGGLVQAGGSLRISCAASGFIFRRYAMGWYRQAPGKERELVAAIRTNSGSTYYADSVKGRFTISRDNAKNTVYLQMNSLKPEDTAVYYCATGQVYRTVSWLYNYWGQGTQVTVSS	high polyreactivity
QVQLVDSGGGLVQAGGSLRLSCAASGSIFHANAMGWYRQAPGKERELVAVISQGGGSTYYADSVKGRFTISRDNAKNTVYLQMNSLKPEDTAVYYCAAYYYYSAYGDDYWGQGTQVTVSS	high polyreactivity
QVQLVESGGGLVQAGGSLRLSCAASGRIFSPYAMGWYRQAPGKERELVATITSGGSTNYADSVKGRFTISRDNAKNTVYLQKNSLKPEDTAVYYCNAVYYSNPYYYSRVWQYYYWGQGTQVTVSS	low polyreactivity
QVHLVESGGGLVQAGGSLRLSCAASGRTFVRYAMGWYRQAPGKERELVARITARGTSTYYADSVKGRFTISRDNAKNTVYLQMNRLKPEDTAVYYCNKVRTFRDKSRYDYWGQGTQVTVSS	low polyreactivity
QVQLVESGGGLVHAGGSLRLSCAASGRTFNGNAMGWYRQAPGKERELVAVITGSGGSTYYADSVKGRYTISRDNAKNTVYLQMNSLKPEDTAVYYCNKKVQRRSWYDYWGQGTQVTVSS	low polyreactivity
QVQLVESGGGLVQAGGSLRLSCAASGSIFPVNAMGLYRQAPGKERELVAAINTSSGSTYYADSVKGRFTISRDNAKNTVYLQMNSLKPEDTAVYYCAAVYVASGYRYGYWGQGTQVTVSS	high polyreactivity
QDQLVESGGGLVQAGGSLRLSSAASGFTFAHYARGWYRQAPGKERELVAAISGSGSSTYYADSVKGRFTISRDNAKNTVYLQMNSLKPEDTAVYYCNVRWYFLYDYWGQGTQVTVSS	low polyreactivity
QVQLVESGGGLVQAGGSLRLSCAPSGRTFVHYTMGWYRQAPGKERELVAAISGTGTSTYYADSVKGRFTISRDNAKNTVYLQMNSLKPEDTAVYYCARRYWYPDAFYRYDYWGQGTQVTVSS	low polyreactivity
QVQLVESGGGLVQAGGSLRLSCSASGLTFGNNAMGWYRQAPGKETELVAAISSDGTTYYADSVKGRFTISRDHAKNTVYLQMNSLKPEDSAVYYCAALYGPGREYDYWGQGTQVTVSS	low polyreactivity
QVQLVESGGGLVQAGGILRLSCAAYGRTSSYTMGWDIQANGQERELVAAITRRGGSTYYADSVKGRFTISRDHAKNSVYLQMNSLKPEDTAVYYCAASYRGEYDYWGQGTQVTVSS	high polyreactivity
QVQLVESGGGLVQAGGSLRLSCAASGLTFYYYAMGWSRQAPGKERELVAAISRSGGSTYYADSVKGRFTISRDNAKNTVYLQINSLKPEDTAVYYCAAREPYEGQRYYYEYYYWGQGTQVTVSS	high polyreactivity
QVQLVESGGGLVQAGGSLRLSCAASGSNIGTYAMGWYRQAPGKERELVAAISSSGGRTYYADSVKGRFTISRDNAKNTVYLQMNSLKPEDTAVYYCATKRVLTGYDSWGQGTQVTVSS	high polyreactivity
QVQLVESGGGLVQAGGSLRLSCAASGLIFRGYAMGWYRQAPGKERELVAAISTTGGSTFYADSVKGRFTISRDNAKNTVYLQMNSLKREDTAVYYCNADWAPTGFSGGYPYDYWGQGTQVTVSS	high polyreactivity
QVQLVESAGGLVQAGGSLRLSCAASGSIFYYYAMGWYRQAPGKERELVATISSSSGSTYYADSVKGRFTISRDNAKYTVYLQMNRLKPEDTAVYYCATVSGSVWQRWVYANYDFWGQGTQVTVSS	low polyreactivity
QVQLVESGGGLVQAGGSLRLSCAASGLTFQVNDMGWYRQAPGKERELVAGITFSGGSTYYPDSVKWRITISRDNAKTTVYLQMNSLKPEDTAVYYCADDTIIGYLYHNVVPTFDYWGQGTQVTVSS	low polyreactivity
HVQLVESGGGLVQAGGSLRLSCAASGSISAVNTMGWYRQAPGKERELVATISYSTASTYYADSVKGRFTISRDNAKNTVYLQMNSLKPEDTAVYYCAADAYFDTWYDYWGQGTQVTVSS	low polyreactivity

Sequence	polyreactivity (PSR sort gate)
QVQLVESGGGLVQAGGSLRLSCAASGRIFYSNTMGWYRQAPGKERELVAAISRSGGRTYYADSVKGRFTISRDNAKHTVYLQMNSLKPEDTAVYYCNTAYYRNPYYKGYYWGQGTQVTVSS	high polyreactivity
QVQLVESGGGLVQAGGSLRLSRAATGSIIASYAMGWYRQAPGKERELVSAISARGGSTYYADSVKGRFTISRDNAKNTVYLQMNSLKPEDTAVYSCAARHQQGRRISDYGYWGQGTQVTVSS	high polyreactivity
QVQLVESGGGLVQAGGSLRLSCAASGSILFYAMVWYRQAPGKERELVAAITWRGGSTYYADSVKGRFTISRDNAKNSVYLQMNSLKPEDTAVYYCARDETGRIEGDYWGQGTQVTVSS	high polyreactivity
QVQLQESGGGLVKAGGSLRLSCAASGNISNHNDMGWYRQAPGKEREFVAGITAGGITNYADSVKGRFTISRDNAKNTVYLLMKRLKPEDTAVYYCAAYPDYAKSYGFWGQGTQATVSS	low polyreactivity
QVQLVESAGGLVQAGGRLRLSCAASGFIFTTNAMGWYRQAPGKEREFVAAITRSGGSTYADSVKGRFTISRDNAKNTVYLQMNSLKPEDTAVYYFNADWAGVDTSYEYDYWGQGTQVTVSS	low polyreactivity
QVQHVESGGGLVQAGGSLRLSCAASGFIFRRYPLGWYRQAPGKERELVASISSGGNTDYADSVKGRFTISRDNAKNTVYLQMKSLNPEDTAVYYCNARVRWYPGYDYWGQGTQVTVSS	high polyreactivity
QVQLVESGGGLVQAGGSLRLSCAASGLIFAYYTMGWYRQAPGKERELVAAITSGVRTYYADSVKGRFTISRDNAKNTVYLQMNSLKPEDTAVYYCAAGLSGSTQATIFWGYYYWGQGTQVTVSS	low polyreactivity
QVQLQESGGGLVQASGSPRLSCAASGNIFDADIMGWYRQAPGKQCELVASITDGGSTNYADSEKGRFTISSDNAKNTVYLQKNSLKPEDTAVYYCAAISYRDIPTYFDYDSDYFYWGQGTHVTVSS	high polyreactivity
QVQLVESGGGLVQAGGSLRLSCAASGSIFQYYGMGWYRPAPGKERELVAAITWNGGSTYADSVKGRFTISRDNAKNTVYLQMNSLKPEDTAVYYCAADLLVRWWLDYDYWGQGTQVTVSS	low polyreactivity
QVQLVESGGGLVQAGGSLRLSCAASGRIFGRYAMGWYRQAPGKERELVASIRSRGGSTYYADSVKGRFTISRDNAKNTVYLQMNSLKPEDTAVYYCAADGTRSYKGYYWGQGTQVTVSS	high polyreactivity
QVQLVESGGGLVQAGGSLRLSCAASGSTFQHYAMGWYRQAPGKERELVAAITHTGGSTYYADSVKGRFTISRDNAKNTVYLQMNSLKPEDTAVYYCATVGRRYGYPGYYWGQGTQVTVSS	low polyreactivity
QVQLVESGGALVQAGGSLRLSCAASGSIFYVYAMGWYRQAPGKEREFVAAITWSGGRTYYADSVKGRFTISRDNAKNTVYLQMNSLKPEDTAVYYCAAGKYRYTYYALEYDYWGQGTQVTVSS	low polyreactivity
QVQLVESGGGLVQAGGSLRLSCAASGRTFSKYAMGWYRQAPGKERELVAAITRSGSSTYYADSVKGRFTISRDNAKNTVYLQMNSLKPEDTAVYYCAADRYVRSSGSASDYGYWGQGTQVTVSS	low polyreactivity
QVQLVESGGGLVQAGGSLRLSCAASGIIFTWYAMGWYRQAPGKERELVAAITSGNTYYADSVKGRFTISRDNAKNTVYLQMNSLKPEDTAVYYCNAVYSYTDEYDYWGQGTQVTVSS	high polyreactivity
QVQLVESGGGVVQARGSRRLSCAASGRSYANAMGWYRQAPGKERELVAAITKNGGGTYYADSVKGRFTISRDNAKNTVYLQMNSLKPEDTAVYYCAASYSRWYYTAKQQEFDYWGQGTQVTVSS	high polyreactivity
QVQLVESGGGLVQAGGSLRLSCAASGRTFRIYAMGWYRQAPGKERELVAAITWGGGSTYYADSVKGRFTISRDNAKNTVYLQMNSLKPEDTAVYYCARVGWSWPRREKYNYWGQGTQVTVSS	high polyreactivity
QVQLVESGGGLVQAGGSLRLSCAASGSTFTPYAMGWYRQAPGKERELVAAISWSDDSTYYADSVKGRFTISRDIAKNTVYLQMNSLKPEDTAVYYCAASAYVDYGVYTYIMDYWGQGTQVTVSS	high polyreactivity
QVQLVESGGGLVQAGGSLRLSCAASGGTFWSYAMGLYRQAPGKEREFVAAITTSAGRTNFADSVKGRFTISRDNAKNTFYLQMNSLKPEDTAVYYCAARSAYPGLGYGFDYWGQGTQVTVSS	low polyreactivity
QVQLVESGGGLVQAGGSLRLSCAASGRTFRYNAMGWYRQAPGKERDLVAAISYSGGRTNYADSVKGRFTISRDNAKNTVYLQMNSLKPEDTAVYDCATGYAVYLSRRDYWGQGTQVTVSS	high polyreactivity
QDQLVESGGGLVQAGGSLRFSCASSGRIFRSYGMGWYRQAPGKERELVARIRNRGGSTYAHSVKGRFTISRDNAKNSVYLQMNSLKPEDTAVYYCAAGAYRHSVFSYDYWGQGTQVTVSS	high polyreactivity
QVQLVESGGGLVQAGGSLRLSCAASGRTFVEYAMGWYRQAPGKERELVAAITYSGDDTYYADSVKGRFTISRDNAKNTVYLQMNSLKPEDTAVYYCAKKRSKPISFDYWGQGTQVTVSS	high polyreactivity
